Here are results for 125 sequences from the supplement of paper PMC9112550, “Optimization of the antimicrobial peptide Bac7 by deep mutational scanning” (BMC Biology, 2022).

This data set has as its system Escherichia coli TOP10. Briefly: shrunken log2 fold change of peptide-encoding DNA abundance (4.5 h post-induction vs induction); higher = less antimicrobial activity (less host growth inhibition). The settings on record: time post-induction: 4.5 h; library: site-saturation at positions 5, 18, 19, 20.
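Note: peptides expressed intracellularly from a pBAD plasmid library in pooled LB shake-flask culture, induced with 0.3% L-arabinose, DNA abundance read by NGS, three biological replicates, DESeq2 with apeglm shrinkage.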

Take RRIRPRPPRLPRPRPRPPKVPRP: the “shrunken log2 fold change” value stood at 0.122.

Turning to RRIRGRPPRLPRPRPRPSVAPRP, the “shrunken log2 fold change” value amounted to 1.37. Then RRIRWRPPRLPRPRPRPRTWPRP, with 0.292. As for RRIRARPPRLPRPRPRPQNCPRP, the figure is -0.19; as for RRIRSRPPRLPRPRPRPAESPRP, -0.04. Then RRIRERPPRLPRPRPRPSQQPRP, with 0.0678; and RRIRMRPPRLPRPRPRPFYWPRP, with 0.086. Turning to RRIRERPPRLPRPRPRPLDHPRP, the “shrunken log2 fold change” value is -0.155. RRIRARPPRLPRPRPRPVHVPRP: the “shrunken log2 fold change” value came to 0.00822. Consider RRIRTRPPRLPRPRPRPPGYPRP, for which the “shrunken log2 fold change” value was 0.0573.

Consider RRIRNRPPRLPRPRPRPAGVPRP, for which the “shrunken log2 fold change” value came to 0.329. Then RRIRRRPPRLPRPRPRPNQPPRP, with -0.0317; and RRIRARPPRLPRPRPRPCDCPRP, with -0.21.

For the sequence RRIRSRPPRLPRPRPRPWSSPRP, the “shrunken log2 fold change” value was found to be 0.0531. Then RRIRARPPRLPRPRPRPCQLPRP, with -0.0907; and RRIRVRPPRLPRPRPRPFQGPRP, with -0.0641; and RRIRNRPPRLPRPRPRPNMNPRP, with -0.265. As for RRIRNRPPRLPRPRPRPKYYPRP, the figure is -0.887; as for RRIRTRPPRLPRPRPRPFYWPRP, -0.348. With RRIRSRPPRLPRPRPRPRIMPRP, the “shrunken log2 fold change” value is -0.105. Then RRIRRRPPRLPRPRPRPPMQPRP, with 0.385; and RRIRIRPPRLPRPRPRPEMVPRP, with -0.14; and RRIRNRPPRLPRPRPRPAVGPRP, with 0.543. With RRIRIRPPRLPRPRPRPGSCPRP, the “shrunken log2 fold change” value worked out at 0.968. On to RRIRMRPPRLPRPRPRPNETPRP, for which the “shrunken log2 fold change” value is -0.0123. With RRIRARPPRLPRPRPRPDIDPRP, the “shrunken log2 fold change” value stood at 0.462. Then RRIRGRPPRLPRPRPRPIKHPRP, with 0.171; and RRIRERPPRLPRPRPRPQYEPRP, with -0.624; and RRIRHRPPRLPRPRPRPVDEPRP, with 0.184. As for RRIRLRPPRLPRPRPRPQHYPRP, the figure is -0.761; as for RRIRYRPPRLPRPRPRPMCEPRP, -0.283. Then RRIRDRPPRLPRPRPRPLTSPRP, with 0.109; and RRIRERPPRLPRPRPRPPVNPRP, with 0.148; and RRIRYRPPRLPRPRPRPRMIPRP, with -0.118. Regarding RRIRCRPPRLPRPRPRPNCQPRP, the “shrunken log2 fold change” value is -0.134. Then RRIRSRPPRLPRPRPRPKNNPRP, with -0.273; and RRIRGRPPRLPRPRPRPKMAPRP, with 0.0451; and RRIRCRPPRLPRPRPRPWGGPRP, with 0.36.

In the case of RRIRSRPPRLPRPRPRPNSHPRP, the “shrunken log2 fold change” value was -0.402. As for RRIRIRPPRLPRPRPRPTFFPRP, the figure is -0.292; as for RRIRLRPPRLPRPRPRPWEEPRP, -0.0678; as for RRIRPRPPRLPRPRPRPIYAPRP, -0.0839. Then RRIRERPPRLPRPRPRPYVEPRP, with -0.534; and RRIRKRPPRLPRPRPRPDSKPRP, with -0.0709; and RRIRMRPPRLPRPRPRPAVNPRP, with 0.0731. Turning to RRIRVRPPRLPRPRPRPCFIPRP, the “shrunken log2 fold change” value was -0.599. As for RRIRARPPRLPRPRPRPQQLPRP, the figure is 0.176; as for RRIRIRPPRLPRPRPRPHFCPRP, -0.139. RRIRMRPPRLPRPRPRPPVAPRP: the “shrunken log2 fold change” value was determined as 1.3. Regarding RRIRGRPPRLPRPRPRPSIHPRP, the “shrunken log2 fold change” value worked out at 0.162. Then RRIRKRPPRLPRPRPRPIHEPRP, with -0.0401; and RRIRLRPPRLPRPRPRPCQFPRP, with -0.0181; and RRIRIRPPRLPRPRPRPDQQPRP, with 0.062. As for RRIRQRPPRLPRPRPRPWDWPRP, the figure is 0.0372; as for RRIRKRPPRLPRPRPRPEQGPRP, 0.199; as for RRIRTRPPRLPRPRPRPTVYPRP, -0.0364. Turning to RRIRLRPPRLPRPRPRPVADPRP, the “shrunken log2 fold change” value turned out to be 0.0131. Then RRIRQRPPRLPRPRPRPNAKPRP, with -0.0176; and RRIRCRPPRLPRPRPRPKKPPRP, with -0.0369.

On to RRIRERPPRLPRPRPRPQEAPRP, for which the “shrunken log2 fold change” value is -0.018. As for RRIRYRPPRLPRPRPRPCEPPRP, the “shrunken log2 fold change” value is 0.0986. Then RRIRLRPPRLPRPRPRPYVNPRP, with -0.23; and RRIRQRPPRLPRPRPRPVQIPRP, with 0.0268. For RRIRQRPPRLPRPRPRPWVAPRP, the “shrunken log2 fold change” value is -0.182. As for RRIRLRPPRLPRPRPRPYSMPRP, the figure is -0.924; as for RRIRVRPPRLPRPRPRPRYVPRP, -0.218. In the case of RRIRVRPPRLPRPRPRPARPPRP, the “shrunken log2 fold change” value was 0.486. For the sequence RRIRDRPPRLPRPRPRPWSAPRP, the “shrunken log2 fold change” value was -0.347. As for RRIRCRPPRLPRPRPRPDRYPRP, the figure is 0.00956.

With RRIRKRPPRLPRPRPRPQEQPRP, the “shrunken log2 fold change” value stood at 0.225.

Regarding RRIRNRPPRLPRPRPRPNKCPRP, the “shrunken log2 fold change” value was -0.466.

As for RRIRYRPPRLPRPRPRPHTWPRP, the “shrunken log2 fold change” value is -0.0877.

Turning to RRIRCRPPRLPRPRPRPEILPRP, the “shrunken log2 fold change” value is -0.0141. As for RRIRFRPPRLPRPRPRPYIGPRP, the figure is -1.25. Then RRIRQRPPRLPRPRPRPYDEPRP, with -0.00145; and RRIRHRPPRLPRPRPRPDDPPRP, with -0.0026.

Consider RRIRHRPPRLPRPRPRPTVCPRP, for which the “shrunken log2 fold change” value came out at 0.196. As to RRIRLRPPRLPRPRPRPSCMPRP, the “shrunken log2 fold change” value was -0.362. In the case of RRIRNRPPRLPRPRPRPMDSPRP, the “shrunken log2 fold change” value is -0.0507. Then RRIRQRPPRLPRPRPRPCSWPRP, with 0.171; and RRIRCRPPRLPRPRPRPTVIPRP, with -0.907. Regarding RRIRCRPPRLPRPRPRPLGGPRP, the “shrunken log2 fold change” value turned out to be 0.281. As for RRIRKRPPRLPRPRPRPISSPRP, the figure is -0.0713.

On to RRIRQRPPRLPRPRPRPANIPRP, for which the “shrunken log2 fold change” value is -0.275. As to RRIRIRPPRLPRPRPRPRFEPRP, the “shrunken log2 fold change” value turned out to be 0.131. As for RRIRLRPPRLPRPRPRPGECPRP, the figure is 0.159; as for RRIRTRPPRLPRPRPRPRDAPRP, 0.881; as for RRIRPRPPRLPRPRPRPMTWPRP, -0.00489. Regarding RRIRQRPPRLPRPRPRPFTYPRP, the “shrunken log2 fold change” value was -0.0211. As to RRIRRRPPRLPRPRPRPYRTPRP, the “shrunken log2 fold change” value was -0.394. Then RRIRCRPPRLPRPRPRPNRHPRP, with -0.388; and RRIRLRPPRLPRPRPRPVCLPRP, with -0.0821; and RRIRWRPPRLPRPRPRPDAWPRP, with 0.884. As for RRIRYRPPRLPRPRPRPGPHPRP, the figure is -0.115. On to RRIRHRPPRLPRPRPRPLMFPRP, for which the “shrunken log2 fold change” value is -0.236. As to RRIRDRPPRLPRPRPRPSDMPRP, the “shrunken log2 fold change” value was -0.307. Then RRIRHRPPRLPRPRPRPQDIPRP, with -0.343; and RRIRQRPPRLPRPRPRPEYFPRP, with -0.0285; and RRIRGRPPRLPRPRPRPVVSPRP, with 0.62. On to RRIRNRPPRLPRPRPRPGSRPRP, for which the “shrunken log2 fold change” value is -0.0159. On to RRIRTRPPRLPRPRPRPAFVPRP, for which the “shrunken log2 fold change” value was -0.163. Then RRIRIRPPRLPRPRPRPPETPRP, with 0.246; and RRIRKRPPRLPRPRPRPDKTPRP, with -0.0726. Then RRIRDRPPRLPRPRPRPVTPPRP, with 0.214; and RRIRCRPPRLPRPRPRPDRKPRP, with -0.458. Consider RRIRPRPPRLPRPRPRPWNGPRP, for which the “shrunken log2 fold change” value worked out at 0.0165. Then RRIRLRPPRLPRPRPRPQEPPRP, with -0.0198; and RRIRLRPPRLPRPRPRPPKYPRP, with -0.154; and RRIRKRPPRLPRPRPRPWEVPRP, with 0.0986. For RRIRWRPPRLPRPRPRPTFCPRP, the “shrunken log2 fold change” value is 0.478. With RRIRIRPPRLPRPRPRPRFTPRP, the “shrunken log2 fold change” value was -0.043. As for RRIRARPPRLPRPRPRPHRHPRP, the figure is -0.0481.

In the case of RRIRRRPPRLPRPRPRPASIPRP, the “shrunken log2 fold change” value is -0.0206. Then RRIRPRPPRLPRPRPRPELKPRP, with 0.0877. Then RRIRGRPPRLPRPRPRPQRRPRP, with 0.565; and RRIRLRPPRLPRPRPRPAECPRP, with -0.167.

Take RRIRYRPPRLPRPRPRPEADPRP: the “shrunken log2 fold change” value was 0.123.

Take RRIRMRPPRLPRPRPRPGLMPRP: the “shrunken log2 fold change” value stood at 0.518. Then RRIRCRPPRLPRPRPRPVPMPRP, with 0.998; and RRIRSRPPRLPRPRPRPQPGPRP, with 0.287. As for RRIRKRPPRLPRPRPRPSGEPRP, the figure is 0.0144. As for RRIRPRPPRLPRPRPRPYYCPRP, the figure is -0.718; as for RRIRGRPPRLPRPRPRPVHWPRP, 0.601; as for RRIRRRPPRLPRPRPRPNPYPRP, -0.0616.

As for RRIRQRPPRLPRPRPRPFCAPRP, the “shrunken log2 fold change” value amounted to 0.184.
